Results as given in patent US20240116985A1 (published 2024).
Starred links: 1 amine or outer side, 2 acyl side, 3 side chain; linkers in the order of their positions; H or OH if unused. Positions of bridges follow the written chain, without caps; N, C: chain ends. Non-standard residues stand in square brackets, D forms with d. Primed or numbered codes have the meaning given here. B5(10) = 2-amino-2-(pent-4-en-1-yl)hept-6-enoic acid, bis(4-pentenyl)glycine, stitching residue bearing both staples, C=CCCCC(CCCC=C)(N[*:1])C(=O)[*:2]; PyrS2″ = (S)-3-amino-1-((pent-4-en-1-yloxy)carbonyl)pyrrolidine-3-carboxylic acid (stapling residue), C=CCCCOC(=O)N1CC[C@@](N[*:1])(C(=O)[*:2])C1; B5(17) = 2,2-bis(4-pentenyl)glycine = 2-amino-2-(pent-4-en-1-yl)hept-6-enoic acid, stitching residue, C=CCCCC(CCCC=C)(N[*:1])C(=O)[*:2]; B5(4) = 2,2-bis(4-pentenyl)glycine = 2-amino-2-(pent-4-en-1-yl)hept-6-enoic acid (stitching residue), C=CCCCC(CCCC=C)(N[*:1])C(=O)[*:2]; B5(21) = 2-amino-2-(pent-4-en-1-yl)hept-6-enoic acid, bis(4-pentenyl)glycine (stitching residue), C=CCCCC(CCCC=C)(N[*:1])C(=O)[*:2]; PyrS2 = (S)-3-amino-1-((pent-4-en-1-yloxy)carbonyl)pyrrolidine-3-carboxylic acid, C=CCCCOC(=O)N1CC[C@@](N[*:1])(C(=O)[*:2])C1; SeN = (S)-5-(((allyloxy)carbonyl)(methyl)amino)-2-amino-2-methylpentanoic acid, C=CCOC(=O)N(C)CCC[C@](C)(N[*:1])C(=O)[*:2]; SdN = (S)-4-(((allyloxy)carbonyl)(methyl)amino)-2-amino-2-methylbutanoic acid, C=CCOC(=O)N(C)CC[C@](C)(N[*:1])C(=O)[*:2]; Phe(2-Cl) = N[C@@H](Cc1ccccc1Cl)C(=O)O; Bta = N[C@@H](Cc1csc2ccccc12)C(=O)O; αAllylPro = C=CC[C@@]1(C(=O)O)CCCN1; S8 = C=CCCCCCC[C@](C)(N)C(=O)O

How the values were obtained:
[1] = target: T1, full-length beta-Catenin (Uniprot ID P35222) (Homo sapiens (Human), UniProt P35222 2-781); assay: fluorescence polarization competition; 10 nM full-length beta-catenin + 10 nM 5FAM-TCF4 10-53 as competitor probe
T1 construct: Used at 10 nM in the FP probe solution as 'full-length'; Also used here for the endogenous beta-catenin of the DLD1 TCF/LEF reporter cells (functional rows); also called bCat; B-Catenin
T1 sequence: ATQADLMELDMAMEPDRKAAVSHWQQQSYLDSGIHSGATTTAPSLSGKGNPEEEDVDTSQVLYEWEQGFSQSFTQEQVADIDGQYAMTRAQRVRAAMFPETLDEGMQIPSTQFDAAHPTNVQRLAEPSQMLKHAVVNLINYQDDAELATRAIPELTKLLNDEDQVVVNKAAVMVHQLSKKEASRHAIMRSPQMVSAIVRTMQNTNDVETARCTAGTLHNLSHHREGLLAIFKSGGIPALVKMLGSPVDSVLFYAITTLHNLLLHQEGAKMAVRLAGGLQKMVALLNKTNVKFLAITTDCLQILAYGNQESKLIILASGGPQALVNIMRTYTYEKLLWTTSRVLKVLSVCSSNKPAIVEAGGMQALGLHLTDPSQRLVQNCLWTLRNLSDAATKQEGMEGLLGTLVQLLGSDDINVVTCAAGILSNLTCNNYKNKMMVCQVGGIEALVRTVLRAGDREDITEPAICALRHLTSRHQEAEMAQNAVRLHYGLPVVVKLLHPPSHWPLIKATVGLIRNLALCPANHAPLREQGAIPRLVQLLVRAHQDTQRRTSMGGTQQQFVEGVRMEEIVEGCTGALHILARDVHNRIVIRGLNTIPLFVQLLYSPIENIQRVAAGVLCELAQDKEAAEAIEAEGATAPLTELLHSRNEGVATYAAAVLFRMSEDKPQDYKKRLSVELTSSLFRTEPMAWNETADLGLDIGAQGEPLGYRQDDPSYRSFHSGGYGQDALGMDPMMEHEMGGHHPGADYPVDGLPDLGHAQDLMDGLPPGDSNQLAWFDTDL
Description: (§1) The plate was incubated protected from light for 60 minutes at 20° C. prior to read. Reads were performed on a CLARIOstar plate reader (BMG Labtech) in duplicate, and data were fitted to a 1:1 binding model with hill slope using an in-house script. All provided concentrations are final concentrations.

[2] = target: T2, full-length beta-Catenin (Uniprot ID P35222) (Homo sapiens (Human), UniProt P35222 1-781); assay: fluorescence polarization competition; full-length beta-catenin + 5FAM-TCF4(10-53) probe
T2 construct: also called bCat; B-Catenin
T2 sequence: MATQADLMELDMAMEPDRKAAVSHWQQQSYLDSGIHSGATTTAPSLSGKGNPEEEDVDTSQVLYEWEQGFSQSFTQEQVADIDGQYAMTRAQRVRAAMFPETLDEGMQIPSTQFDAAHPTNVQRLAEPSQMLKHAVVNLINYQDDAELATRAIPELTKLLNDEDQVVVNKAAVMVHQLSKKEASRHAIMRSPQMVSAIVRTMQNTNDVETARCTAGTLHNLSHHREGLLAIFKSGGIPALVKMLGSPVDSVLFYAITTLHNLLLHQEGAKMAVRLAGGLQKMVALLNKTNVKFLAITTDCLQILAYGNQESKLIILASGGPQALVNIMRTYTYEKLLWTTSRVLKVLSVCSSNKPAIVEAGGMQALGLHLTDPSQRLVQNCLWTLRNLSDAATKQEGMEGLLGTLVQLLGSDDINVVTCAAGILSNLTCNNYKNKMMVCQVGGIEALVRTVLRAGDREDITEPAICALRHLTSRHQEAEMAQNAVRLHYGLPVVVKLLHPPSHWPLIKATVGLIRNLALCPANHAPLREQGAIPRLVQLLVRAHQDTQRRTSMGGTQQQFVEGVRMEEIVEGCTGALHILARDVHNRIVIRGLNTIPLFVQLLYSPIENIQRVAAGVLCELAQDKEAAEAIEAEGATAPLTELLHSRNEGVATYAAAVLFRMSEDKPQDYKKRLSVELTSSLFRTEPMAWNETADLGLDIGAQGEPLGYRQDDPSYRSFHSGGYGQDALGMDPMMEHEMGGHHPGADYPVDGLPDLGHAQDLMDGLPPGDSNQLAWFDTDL
Description: as §1

[3] = target: T3, full-length beta-Catenin (Uniprot ID P35222) (Homo sapiens (Human), UniProt P35222 1-781); assay: fluorescence polarization competition; full-length beta-catenin, 5FAM-TCF4(10-53) probe as competitor
T3 construct: The assay protocol says 'full-length'; also called bCat; B-Catenin
T3 sequence: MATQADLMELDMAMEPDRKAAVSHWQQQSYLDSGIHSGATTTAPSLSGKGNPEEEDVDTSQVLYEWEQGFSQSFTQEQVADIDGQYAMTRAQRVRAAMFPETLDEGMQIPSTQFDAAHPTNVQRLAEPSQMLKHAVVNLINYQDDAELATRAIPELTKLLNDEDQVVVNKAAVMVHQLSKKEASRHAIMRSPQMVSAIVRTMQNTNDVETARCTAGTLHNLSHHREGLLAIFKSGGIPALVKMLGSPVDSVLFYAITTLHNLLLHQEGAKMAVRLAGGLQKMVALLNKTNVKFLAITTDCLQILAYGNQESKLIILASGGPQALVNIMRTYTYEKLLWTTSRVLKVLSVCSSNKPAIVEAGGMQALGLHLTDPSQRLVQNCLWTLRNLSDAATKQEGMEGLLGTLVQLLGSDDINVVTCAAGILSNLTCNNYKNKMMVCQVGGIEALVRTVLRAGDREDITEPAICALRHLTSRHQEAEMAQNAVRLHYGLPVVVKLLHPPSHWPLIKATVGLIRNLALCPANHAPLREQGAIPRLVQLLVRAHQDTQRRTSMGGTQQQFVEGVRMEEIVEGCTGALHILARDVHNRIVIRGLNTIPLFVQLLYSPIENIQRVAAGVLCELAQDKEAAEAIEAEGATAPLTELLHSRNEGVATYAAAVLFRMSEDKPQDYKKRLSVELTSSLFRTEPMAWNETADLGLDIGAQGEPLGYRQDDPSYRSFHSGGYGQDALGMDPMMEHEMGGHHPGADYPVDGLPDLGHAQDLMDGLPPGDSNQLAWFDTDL
Description: as §1

[4] = target: T4, B-cat-Halo (UniProt P35222 1-781); assay: NanoBRET Abs IC50 in HEK293 cells; Bcat-Halo, TCF4-Luc as competitor
T4 construct: Expressed by transfection in HEK293 cells for the NanoBRET assay; also called beta-catenin HaloTag NanoBRET construct; not shown: HaloTag
T4 sequence (looked up): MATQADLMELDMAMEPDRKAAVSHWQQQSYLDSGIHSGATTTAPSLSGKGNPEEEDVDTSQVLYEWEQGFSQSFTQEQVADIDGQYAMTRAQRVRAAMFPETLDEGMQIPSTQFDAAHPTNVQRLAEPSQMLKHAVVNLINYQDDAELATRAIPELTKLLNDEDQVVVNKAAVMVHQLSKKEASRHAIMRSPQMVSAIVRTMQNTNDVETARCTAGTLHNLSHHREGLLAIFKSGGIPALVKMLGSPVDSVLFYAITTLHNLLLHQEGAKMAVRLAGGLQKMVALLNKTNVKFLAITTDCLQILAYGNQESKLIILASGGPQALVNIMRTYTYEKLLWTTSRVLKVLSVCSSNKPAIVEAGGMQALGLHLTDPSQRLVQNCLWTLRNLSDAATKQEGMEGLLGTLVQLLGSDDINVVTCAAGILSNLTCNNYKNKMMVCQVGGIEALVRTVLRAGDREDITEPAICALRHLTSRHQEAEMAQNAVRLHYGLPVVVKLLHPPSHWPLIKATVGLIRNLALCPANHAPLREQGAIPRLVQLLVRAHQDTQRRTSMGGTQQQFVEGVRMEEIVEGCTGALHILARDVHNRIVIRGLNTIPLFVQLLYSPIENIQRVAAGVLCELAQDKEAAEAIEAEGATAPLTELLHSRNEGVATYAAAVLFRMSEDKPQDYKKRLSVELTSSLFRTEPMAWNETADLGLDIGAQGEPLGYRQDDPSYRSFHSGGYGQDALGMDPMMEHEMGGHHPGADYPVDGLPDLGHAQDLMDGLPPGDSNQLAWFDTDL

Ac-[αAllylPro]DF[B5(4)]DDAAFT[PyrS2″][Phe(2-Cl)][Bta]S-NH2 (staple 1-4, 4-11, Stapled (stitched) peptide composition) [I-1049]
EC50 [1]: 0.006 µM

B1: I-1286 (peptide)
peptide: Ac-[αAllylPro]NA[B5(10)]DTAAFL[PyrS2]F[Bta]Q-NH2
modifications: staple 1-4, 4-11; not fully specified; printed as Ac-PL3-Asn-Ala-B5-Asp-Thr-Ala-Ala-Phe-Leu-PyrS2-Phe-BztA-Gln-NH2
EC50 [2]: 10 µM

B2: I-1287 (peptide)
peptide: Ac-[αAllylPro]NA[B5(10)]DTAAFL[PyrS2]F[Bta]Q-NH2
modifications: staple 1-4, 4-11; not fully specified; printed as Ac-PL3-Asn-Ala-B5-Asp-Thr-Ala-Ala-Phe-Leu-PyrS2-Phe-BztA-Gln-NH2
EC50 [2]: 10 µM

B3: I-1295 (peptide)
peptide: Ac-[αAllylPro]DA[B5(10)]NTAAFL[PyrS2]F[Bta]Q-NH2
modifications: staple 1-4, 4-11; not fully specified; printed as Ac-PL3-Asp-Ala-B5-Asn-Thr-Ala-Ala-Phe-Leu-PyrS2-Phe-BztA-Gln-NH2
EC50 [2]: 10 µM

Ac-[αAllylPro]DA[B5(21)]DDAAFV[S8]FWQ-NH2 (staple 1-4, 4-11, Tested as stapled peptide composition) [I-52: Ac-PL3-Asp-Ala-B5-Asp-Asp-Ala-Ala-Phe-Val-S8-Phe-Trp-Gln-NH2 (stapled peptide)]
IC50 [3]: 3.2 µM

Ac-[αAllylPro]DA[B5(21)]DDAAFV[SeN]FWQ-NH2 (staple 1-4, 4-11, Same description as I-54) [I-53: Ac-PL3-Asp-Ala-B5-Asp-Asp-Ala-Ala-Phe-Val-SeN-Phe-Trp-Gln-NH2 (stapled peptide)]
IC50 [3]: 5 µM

B4: I-54: Ac-PL3-Asp-Ala-B5-Asp-Asp-Ala-Ala-Phe-Val-SeN-Phe-Trp-Gln-NH2 (stapled peptide) (peptide)
peptide: Ac-[αAllylPro]DA[B5(4)]DDAAFV[SeN]FWQ-NH2
modifications: staple 1-4, 4-11; not fully specified; printed as Ac-PL3-Asp-Ala-B5-Asp-Asp-Ala-Ala-Phe-Val-SeN-Phe-Trp-Gln-NH2
notes: Same description as I-53
IC50 [3]: 3.19 µM

Ac-[αAllylPro]DA[B5(17)]DDAAFV[SdN]FWQ-NH2 (staple 1-4, 4-11, Tested as stapled peptide composition) [I-55: Ac-PL3-Asp-Ala-B5-Asp-Asp-Ala-Ala-Phe-Val-SdN-Phe-Trp-Gln-NH2 (stapled peptide)]
IC50 [3]: 5 µM

B5: I-64: Ac-Ala-Asp-Ile-RdN-Asp-Asp-Ala-Ala-Phe-Gln-S7-Phe-Trp-His-NH2 (stapled peptide) (peptide)
peptide: ADIXDDAAFQXFWH
modifications: not fully specified; N-terminal acetyl (Ac); C-terminal amide (NH2); RdN at position 4 and S7 at position 11 (non-natural olefin amino acids); stapled by olefin metathesis RdN-S7
notes: Same description as I-65
IC50 [3]: 4.25 µM

B6: I-565 (peptide)
peptide: Ac-[αAllylPro]DL[B5(21)]DDAAFN[S8]F[Bta]H-NH2
modifications: staple 1-4, 4-11; not fully specified
notes: Stapled peptide composition; also called Ac-PL3-Asp-Leu-B5-Asp-Asp-Ala-Ala-Phe-Asn-S8-Phe-BztA-His-NH2
IC50 [4]: 26 µM

B7: I-576 (peptide)
peptide: XDLXDEAAFNXFXQ
modifications: not fully specified; N-terminal Ac; C-terminal NH2; non-natural PL3 (1), B5 (4), S8 (11), BztA (13); stapled PL3-B5 and B5-S8 by olefin metathesis
notes: Stapled peptide composition; also called Ac-PL3-Asp-Leu-B5-Asp-Glu-Ala-Ala-Phe-Asn-S8-Phe-BztA-Gln-NH2
IC50 [4]: 11.1 µM

B8: I-577 (peptide)
peptide: Ac-[αAllylPro]DL[B5(21)]DEAAFN[S8]F[Bta]Q-NH2
modifications: staple 1-4, 4-11; not fully specified
notes: as for B7
IC50 [4]: 10.4 µM
